Reference: article PMC3902925, “The double PHD finger domain of MOZ/MYST3 induces α-helical structure of the histone H3 tail to facilitate acetylation and methylation sampling and modification” (Nucleic Acids Research, 2013)

Target: histone H3 of calf thymus core histones (bovine (calf thymus), UniProt P68432 1-136)
Test: cell-based or functional assay

B1: GST-MOZ DPF-MYST (194–810) (enzyme)
chain: LPHEKDKPVAEPIPICSFCLGTKEQNREKKPEELISCADCGNSGHPSCLKFSPELTVRVKALRWQCIECKTCSSCRDQGKNADNMLFCDSCDRGFHMECCDPPLTRMPKGMWICQICRPRKKGRKLLQKKAAQIKRRYTNPIGRPKNRLKKQNTVSKGPFSKVRTGPGRGRKRKITLSSQSASSSSEEGYLERIDGLDFCRDSNVSLKFNKKTKGLIDGLTKFFTPSPDGRKARGEVVDYSEQYRIRKRGNRKSSTSDWPTDNQDGWDGKQENEERLFGSQEIMTEKDMELFRDIQEQALQKVGVTGPPDPQVRCPSVIEFGKYEIHTWYSSPYPQEYSRLPKLYLCEFCLKYMKSRTILQQHMKKCGWFHPPANEIYRKNNISVFEVDGNVSTIYCQNLCLLAKLFLDHKTLYYDVEPFLFYVLTQNDVKGCHLVGYFSKEKHCQQKYNVSCIMILPQYQRKGYGRFLIDFSYLLSKREGQAGSPEKPLSDLGRLSYMAYWKSVILECLYHQNDKQISIKKLSKLTGICPQDITSTLHHLRMLDFRSDQFVIIRREKLIQDHMAKLQLNLRPVDVDPECLRWTPVIVSNSVVSEEEEEEAEEGENEEPQCQERELE
  initial rate of acetylation of core histones in time course HAT assays, DPF-MYST (194–810) against the MYST domain (510–810) alone: ≥ 8 fold
